Assay results reported in patent US20240158497A1 (published 2024).

Target: T1, human gp130 extracellular domain (E23-E619) with C-terminal mouse IgG2a Fc (human)
T1 construct: dimeric; also called hGP130-mFc; human GP130-mFc
T1 chain: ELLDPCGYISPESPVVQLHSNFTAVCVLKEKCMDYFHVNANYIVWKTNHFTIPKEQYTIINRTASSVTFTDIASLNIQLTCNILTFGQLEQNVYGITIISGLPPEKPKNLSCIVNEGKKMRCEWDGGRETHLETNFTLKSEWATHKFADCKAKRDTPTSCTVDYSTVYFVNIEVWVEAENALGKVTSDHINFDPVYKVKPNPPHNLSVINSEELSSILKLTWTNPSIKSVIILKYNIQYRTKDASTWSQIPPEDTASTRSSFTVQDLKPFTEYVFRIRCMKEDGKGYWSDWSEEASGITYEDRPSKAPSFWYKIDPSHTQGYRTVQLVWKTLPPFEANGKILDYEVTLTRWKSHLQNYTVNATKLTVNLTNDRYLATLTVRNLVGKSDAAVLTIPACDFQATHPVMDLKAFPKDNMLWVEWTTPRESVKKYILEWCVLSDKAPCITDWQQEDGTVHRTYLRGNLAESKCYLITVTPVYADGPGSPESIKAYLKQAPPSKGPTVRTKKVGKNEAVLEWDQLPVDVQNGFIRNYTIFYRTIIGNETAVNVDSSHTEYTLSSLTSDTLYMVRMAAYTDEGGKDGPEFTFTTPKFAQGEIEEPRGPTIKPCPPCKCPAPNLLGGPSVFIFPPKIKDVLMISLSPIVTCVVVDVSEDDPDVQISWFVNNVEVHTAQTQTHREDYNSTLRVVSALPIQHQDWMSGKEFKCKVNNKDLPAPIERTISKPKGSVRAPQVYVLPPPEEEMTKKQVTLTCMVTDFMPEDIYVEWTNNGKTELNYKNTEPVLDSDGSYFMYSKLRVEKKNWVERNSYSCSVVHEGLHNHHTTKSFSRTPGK
Test: blocking ELISA, 2.5 nM hGP130-mFc on plate-bound CNTFR/CNTF complex; * below lower limit of quantitation 1.25E-09M
Method: The experiment was carried out using the following procedure. Human CNTFRα was coated at a concentration of […] in HBSS on a 96-well microtiter plate overnight at 4° C. […] Human CNTF at a concentration of 1 μg/ml in HBSS was added to the plate bound CNTFRα for 1 hour at room temperature. In separate dilution plates, a constant amount of 2.5 nM of human GP130-mFc protein was titrated with antibodies ranging from 3.4 pM to 200 nM in serial dilution and with no antibody present. These solutions were incubated for 1 hour at room temperature (RT) and subsequently transferred to the microtiter plates with CNTFRα/CNTF complex without washing. The plates were incubated for 2 hours at RT, washed with PBST buffer, and plate-bound hGP130-mFc was detected with an anti-mFc polyclonal antibody conjugated with horseradish peroxidase (HRP) (Jackson ImmunoResearch Inc). Samples were developed with a TMB solution (BD Biosciences, substrate A and B mixed at 1:1 ratio as per manufacturer's instructions) to produce a colorimetric reaction and then neutralized with 1M sulfuric acid before measuring absorbance at 450 nm on a Victor X5 plate reader.
Data analysis was performed using a sigmoidal dose-response model within Prism™ software (GraphPad). […]

IC50: 0.644 nM
B1: MAb16666 (antibody, V domains shown)
VH: EVQLVESGGGLVQSGGSLRLSCAASGFTFSRYEMNWVRQAPGKGLEWVAYISNTGTTRDYSDSVKGRFTISRDNAKNSLYLQMSSLRVEDTAVYYCVREKFSGTSDWFDPWGQGTLVTVSS
VL: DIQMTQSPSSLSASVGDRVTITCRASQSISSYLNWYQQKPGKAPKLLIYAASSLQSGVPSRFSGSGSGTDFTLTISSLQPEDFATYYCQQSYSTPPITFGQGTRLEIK
notes: hIgG4 isotype control used
